Measurements published in PMC12354898, “Collagen VI microfibril structure reveals mechanism for molecular assembly and clustering of inherited pathogenic mutations” (Nature Communications, 2025).

Molecular target: T1, mini-collagen VI α1 chain, ColVIα1^C1C2 (human, UniProt P12109 566-1028)
T1 construct: human collagen VI α1 chain, UniProt P12109 aa 566-1028: nine Gly-X-Y triplets, coiled coil region, C1 and C2 vWA domains; Synthetic gene cloned into pHLSec with AgeI and XhoI; one chain of the disulphide-bonded heterotrimer α1α2α3^C1C2; also called α1 chain of α1α2α3^C1C2; source: Expi293F, co-transfected with the other two chains, secreted; in conditioned media, and purified (Strep-Tactin XT, …)
T1 sequence (looked up): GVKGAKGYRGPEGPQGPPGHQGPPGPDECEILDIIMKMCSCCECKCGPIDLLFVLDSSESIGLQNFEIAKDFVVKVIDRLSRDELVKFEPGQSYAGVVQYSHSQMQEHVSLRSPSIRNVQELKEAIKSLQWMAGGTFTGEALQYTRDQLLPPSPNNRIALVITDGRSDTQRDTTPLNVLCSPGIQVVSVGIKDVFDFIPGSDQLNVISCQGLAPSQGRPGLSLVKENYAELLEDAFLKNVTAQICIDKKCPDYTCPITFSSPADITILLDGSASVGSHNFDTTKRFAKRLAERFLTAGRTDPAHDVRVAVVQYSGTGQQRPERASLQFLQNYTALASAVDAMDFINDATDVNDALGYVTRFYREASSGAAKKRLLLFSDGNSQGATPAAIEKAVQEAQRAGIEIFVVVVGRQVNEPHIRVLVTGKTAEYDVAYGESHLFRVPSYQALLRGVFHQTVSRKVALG
Assay: pull-down; three chains co-expressed in Expi293F; sequential affinity steps from conditioned media (Strep-Tactin XT for Twin-Strep α2, Ni-Sepharose for His α1, anti-FLAG M2 for α3; Fig. 5f: Twin-strep then His-tag); eluates on reduced and non-reduced SDS-PAGE
Settings: partners not purified

B1: mini-collagen VI α2 chain, ColVIα2^C1C2 (domain or fragment, human, UniProt P12110 564-1019, looked up)
chain: GEPGPRGPRGVPGPEGEPGPPGDPGLTECDVMTYVRETCGCCDCEKRCGALDVVFVIDSSESIGYTNFTLEKNFVINVVNRLGAIAKDPKSETGTRVGVVQYSHEGTFEAIQLDDERIDSLSSFKEAVKNLEWIAGGTWTPSALKFAYDRLIKESRRQKTRVFAVVITDGRHDPRDDDLNLRALCDRDVTVTAIGIGDMFHEKHESENLYSIACDKPQQVRNMTLFSDLVAEKFIDDMEDVLCPDPQIVCPDLPCQTELSVAQCTQRPVDIVFLLDGSERLGEQNFHKARRFVEQVARRLTLARRDDDPLNARVALLQFGGPGEQQVAFPLSHNLTAIHEALETTQYLNSFSHVGAGVVHAINAIVRSPRGGARRHAELSFVFLTDGVTGNDSLHESAHSMRKQNVVPTVLALGSDVDMDVLTTLSLGDRAAVFHEKDYDSLAQPGFFDRFIRWIC
notes: human collagen VI α2 chain, UniProt P12110 aa 564-1019: nine Gly-X-Y triplets, coiled coil region, C1 and C2 vWA domains; Synthetic gene cloned into pHLSec with AgeI and XhoI; density for two N-linked glycans on this chain in the cryoEM map; also called α2 chain of α1α2α3^C1C2; source: Expi293F, co-transfected with the other two chains, secreted; in conditioned media, and purified (Strep-Tactin …)
  binding result: binds
